Data on one molecule can be found in paper PMC9205196.

The target in the test is Recombinant human FGF2 (fibroblast growth factor-2), biotinylated (human). Briefly: AlphaScreen or HTRF. For orientation: In Alpha technology, singlet oxygen from a donor bead excites a nearby acceptor bead.

B1: mSDC1: commercial glycosylated, mammalian expressed recombinant mouse SDC1 ectodomain (domain or fragment)
chain: QIVAVNVPPEDQDGSGDDSDNFSGSGTGALPDTLSRQTPSTWKDVWLLTATPTAPEPTSSNTETAFTSVLPAGEKPEEGEPVLHVEAEPGFTARDKEKEVTTRPRETVQLPITQRASTVRVTTAQAAVTSHPHGGMQPGLHETSAPTAPGQPDHQPPRVEGGGTSVIKEVVEDGTANQLPAGEGSGEQDFTFETSGENTAVAAVEPGLRNQPPVDEGATGASQSLLDRKEVLG
modifications: native GAG chains from the mammalian host (CS predominant over HS by the paper's disaccharide analysis)
Take B1: the EC50 came out at 7 nM.

By EC50 is commonly meant the midpoint of the concentration-response curve.
